# Experiments:
# Grb2 SH2 = Grb2 SH2 (UniProt P62993); assay: SH2 binding enrichment of the phosphorylated peptide, bacterial display (enrichment ratio); higher = better substrate or ligand; peptides without Tyr show the background
# SHP2-C SH2 = assay: as above
# c-Src SH2 = assay: as above
# Jak2 = Jak2 (UniProt O60674); assay: phosphorylation enrichment, bacterial display (enrichment ratio); higher = better substrate or ligand; peptides without Tyr show the background
# EPHB1 = EPHB1 (UniProt P54762); assay: as above
# Sequence of EPHB1 (P54762 whole entry, looked up): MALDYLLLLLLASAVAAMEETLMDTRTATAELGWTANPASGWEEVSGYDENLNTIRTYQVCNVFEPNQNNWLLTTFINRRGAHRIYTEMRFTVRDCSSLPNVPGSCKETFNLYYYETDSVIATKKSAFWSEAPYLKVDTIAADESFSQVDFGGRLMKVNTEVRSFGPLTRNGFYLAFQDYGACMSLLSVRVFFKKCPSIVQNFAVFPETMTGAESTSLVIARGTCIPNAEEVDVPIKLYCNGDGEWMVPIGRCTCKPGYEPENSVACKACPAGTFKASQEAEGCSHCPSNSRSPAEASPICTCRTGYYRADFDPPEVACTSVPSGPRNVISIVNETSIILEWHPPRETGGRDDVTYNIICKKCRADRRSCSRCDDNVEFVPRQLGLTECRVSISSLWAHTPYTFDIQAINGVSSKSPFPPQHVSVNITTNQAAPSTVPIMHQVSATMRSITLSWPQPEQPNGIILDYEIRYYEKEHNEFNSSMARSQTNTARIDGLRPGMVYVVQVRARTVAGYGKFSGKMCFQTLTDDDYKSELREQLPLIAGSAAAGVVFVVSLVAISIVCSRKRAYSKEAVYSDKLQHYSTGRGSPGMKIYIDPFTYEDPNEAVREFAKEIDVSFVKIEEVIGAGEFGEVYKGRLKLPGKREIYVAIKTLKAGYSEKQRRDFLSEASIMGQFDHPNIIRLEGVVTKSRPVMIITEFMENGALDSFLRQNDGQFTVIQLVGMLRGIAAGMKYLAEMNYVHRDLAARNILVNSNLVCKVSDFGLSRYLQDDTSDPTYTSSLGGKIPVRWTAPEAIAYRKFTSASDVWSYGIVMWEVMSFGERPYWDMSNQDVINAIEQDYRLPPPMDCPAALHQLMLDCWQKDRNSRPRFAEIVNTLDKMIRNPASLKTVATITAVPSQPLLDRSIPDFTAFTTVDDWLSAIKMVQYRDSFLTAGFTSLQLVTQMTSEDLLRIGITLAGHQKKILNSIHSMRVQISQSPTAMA
# c-Src = assay: as above
# Fes = Fes (UniProt P07332); assay: as above
# EPHB2 = EPHB2 (UniProt P29323); assay: as above
# Sequence of EPHB2 (P29323 whole entry, looked up): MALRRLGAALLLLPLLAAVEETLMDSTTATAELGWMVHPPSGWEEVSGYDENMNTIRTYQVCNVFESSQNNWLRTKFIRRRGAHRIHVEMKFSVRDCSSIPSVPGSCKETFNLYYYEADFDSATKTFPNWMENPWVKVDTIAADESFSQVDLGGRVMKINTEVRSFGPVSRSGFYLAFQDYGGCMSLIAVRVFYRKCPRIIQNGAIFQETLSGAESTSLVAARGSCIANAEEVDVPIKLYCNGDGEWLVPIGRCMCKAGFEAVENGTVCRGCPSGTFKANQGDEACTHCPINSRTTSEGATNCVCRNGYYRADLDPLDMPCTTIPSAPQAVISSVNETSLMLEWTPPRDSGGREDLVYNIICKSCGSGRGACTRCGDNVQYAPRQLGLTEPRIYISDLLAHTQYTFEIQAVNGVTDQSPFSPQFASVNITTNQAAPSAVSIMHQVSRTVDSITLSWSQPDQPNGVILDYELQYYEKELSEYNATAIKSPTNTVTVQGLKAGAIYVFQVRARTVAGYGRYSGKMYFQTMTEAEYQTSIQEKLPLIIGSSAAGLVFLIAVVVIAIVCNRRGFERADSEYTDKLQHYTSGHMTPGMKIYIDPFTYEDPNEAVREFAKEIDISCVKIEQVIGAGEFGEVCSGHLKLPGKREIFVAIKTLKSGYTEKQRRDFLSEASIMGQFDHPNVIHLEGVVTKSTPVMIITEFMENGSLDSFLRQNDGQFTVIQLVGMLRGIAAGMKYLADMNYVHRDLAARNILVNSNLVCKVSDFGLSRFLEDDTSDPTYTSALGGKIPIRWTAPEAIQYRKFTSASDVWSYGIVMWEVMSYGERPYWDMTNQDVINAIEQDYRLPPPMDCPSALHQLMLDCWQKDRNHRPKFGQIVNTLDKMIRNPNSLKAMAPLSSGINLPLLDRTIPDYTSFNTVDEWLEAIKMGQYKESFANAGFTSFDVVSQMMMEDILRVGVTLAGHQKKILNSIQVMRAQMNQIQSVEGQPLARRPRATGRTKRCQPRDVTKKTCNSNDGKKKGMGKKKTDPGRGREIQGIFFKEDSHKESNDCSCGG
# MERTK = MERTK (UniProt Q12866); assay: as above
# Sequence of MERTK (Q12866 whole entry, looked up): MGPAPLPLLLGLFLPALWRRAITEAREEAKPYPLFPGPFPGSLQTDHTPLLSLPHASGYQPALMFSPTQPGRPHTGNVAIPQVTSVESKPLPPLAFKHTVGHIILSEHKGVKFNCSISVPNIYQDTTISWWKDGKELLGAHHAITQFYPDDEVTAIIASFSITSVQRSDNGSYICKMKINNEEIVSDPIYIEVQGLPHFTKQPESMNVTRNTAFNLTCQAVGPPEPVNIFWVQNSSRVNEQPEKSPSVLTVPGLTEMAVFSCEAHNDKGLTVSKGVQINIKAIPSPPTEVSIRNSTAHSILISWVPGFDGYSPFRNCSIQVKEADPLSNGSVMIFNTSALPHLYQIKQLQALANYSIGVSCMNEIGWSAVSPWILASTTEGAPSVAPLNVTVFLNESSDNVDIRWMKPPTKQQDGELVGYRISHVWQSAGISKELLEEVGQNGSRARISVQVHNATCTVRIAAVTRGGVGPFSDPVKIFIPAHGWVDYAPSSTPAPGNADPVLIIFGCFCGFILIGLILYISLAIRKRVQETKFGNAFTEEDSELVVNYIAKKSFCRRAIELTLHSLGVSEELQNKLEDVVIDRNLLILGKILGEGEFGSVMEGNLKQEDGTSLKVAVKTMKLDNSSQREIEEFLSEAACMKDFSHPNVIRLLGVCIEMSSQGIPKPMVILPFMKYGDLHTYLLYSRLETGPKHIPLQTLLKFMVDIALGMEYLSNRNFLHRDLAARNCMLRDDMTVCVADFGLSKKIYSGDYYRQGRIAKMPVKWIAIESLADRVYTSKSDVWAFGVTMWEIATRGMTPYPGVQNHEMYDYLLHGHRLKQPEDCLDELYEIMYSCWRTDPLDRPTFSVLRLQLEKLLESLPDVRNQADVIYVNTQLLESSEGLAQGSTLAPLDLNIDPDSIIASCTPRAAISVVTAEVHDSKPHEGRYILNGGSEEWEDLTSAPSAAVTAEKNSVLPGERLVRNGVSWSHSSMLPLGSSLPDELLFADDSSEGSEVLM
# FGFR3 = FGFR3 (UniProt P22607); assay: as above
# AncSZ = assay: as above
# c-Abl (mouse) = assay: as above
# Hck = Hck (UniProt P08631); assay: as above
# Fer (mouse) = assay: as above
# FGFR1 = FGFR1 (UniProt P11362); assay: as above
# Fyn = Fyn (UniProt P06241); assay: as above
# Sequence of Fyn (P06241 whole entry, looked up, the tested form may be a part): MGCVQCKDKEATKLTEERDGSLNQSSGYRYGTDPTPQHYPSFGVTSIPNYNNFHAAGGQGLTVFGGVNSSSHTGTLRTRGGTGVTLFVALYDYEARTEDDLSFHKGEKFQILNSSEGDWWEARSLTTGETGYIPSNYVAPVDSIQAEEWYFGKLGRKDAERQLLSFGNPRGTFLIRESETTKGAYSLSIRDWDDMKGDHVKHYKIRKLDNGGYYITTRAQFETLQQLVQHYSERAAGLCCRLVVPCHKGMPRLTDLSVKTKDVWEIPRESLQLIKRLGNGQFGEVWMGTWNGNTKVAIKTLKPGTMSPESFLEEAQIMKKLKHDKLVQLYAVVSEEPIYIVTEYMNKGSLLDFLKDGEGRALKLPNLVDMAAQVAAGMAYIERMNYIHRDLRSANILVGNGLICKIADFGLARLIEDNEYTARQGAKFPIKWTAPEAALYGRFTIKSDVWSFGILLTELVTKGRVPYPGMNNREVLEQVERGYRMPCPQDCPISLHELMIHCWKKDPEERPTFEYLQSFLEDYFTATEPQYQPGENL
# 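Wherever SH2 binding enrichment of the phosphorylated peptide, bacterial display is given: peptide library displayed on the E. coli surface as eCPX fusions, selected cells deep-sequenced, score is each peptide's frequency after selection divided by its frequency in the input.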
# 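Wherever phosphorylation enrichment, bacterial display is given: 11-residue human phosphosite peptides and single-mutation variants displayed on the E. coli surface, counted by deep sequencing, each peptide's frequency after selection divided by its frequency in the unselected input library; frequency after pTyr selection over input frequency; kinase dosed for 20-30% of maximal phosphorylation in three min.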
# Sequence of Jak2 (O60674 whole entry, looked up): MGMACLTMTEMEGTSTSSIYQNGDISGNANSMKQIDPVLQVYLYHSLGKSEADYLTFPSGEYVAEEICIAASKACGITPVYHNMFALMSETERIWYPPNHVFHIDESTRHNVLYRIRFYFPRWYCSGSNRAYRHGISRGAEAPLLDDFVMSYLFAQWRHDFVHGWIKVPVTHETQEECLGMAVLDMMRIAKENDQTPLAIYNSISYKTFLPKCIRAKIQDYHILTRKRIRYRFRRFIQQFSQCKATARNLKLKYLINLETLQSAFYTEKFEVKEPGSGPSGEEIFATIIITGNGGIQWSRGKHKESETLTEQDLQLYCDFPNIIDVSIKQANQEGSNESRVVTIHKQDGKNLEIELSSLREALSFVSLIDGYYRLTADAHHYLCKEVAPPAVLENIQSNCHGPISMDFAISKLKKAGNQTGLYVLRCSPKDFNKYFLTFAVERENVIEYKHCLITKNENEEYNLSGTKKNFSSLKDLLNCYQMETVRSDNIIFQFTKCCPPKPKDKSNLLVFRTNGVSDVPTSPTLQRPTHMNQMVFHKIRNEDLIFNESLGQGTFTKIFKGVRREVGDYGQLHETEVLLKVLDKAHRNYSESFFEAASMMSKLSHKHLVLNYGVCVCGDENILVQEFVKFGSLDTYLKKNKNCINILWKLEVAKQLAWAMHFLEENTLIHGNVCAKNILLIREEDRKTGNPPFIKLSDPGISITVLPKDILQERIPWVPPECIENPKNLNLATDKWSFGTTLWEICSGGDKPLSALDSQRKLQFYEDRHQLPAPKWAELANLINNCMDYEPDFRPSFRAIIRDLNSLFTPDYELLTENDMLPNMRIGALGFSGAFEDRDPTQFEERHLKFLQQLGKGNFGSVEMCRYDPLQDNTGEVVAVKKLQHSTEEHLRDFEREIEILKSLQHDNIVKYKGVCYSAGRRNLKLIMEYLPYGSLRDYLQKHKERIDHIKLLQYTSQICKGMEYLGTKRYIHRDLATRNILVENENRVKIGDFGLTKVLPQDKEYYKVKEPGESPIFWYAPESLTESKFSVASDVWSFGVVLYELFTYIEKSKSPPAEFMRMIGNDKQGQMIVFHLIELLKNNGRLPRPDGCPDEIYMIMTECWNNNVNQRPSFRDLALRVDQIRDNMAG
Sequence,SH2 binding enrichment (Grb2 SH2),SH2 binding enrichment (SHP2-C SH2),SH2 binding enrichment (c-Src SH2),phosphorylation enrichment (Jak2),phosphorylation enrichment (EPHB1),phosphorylation enrichment (c-Src),phosphorylation enrichment (Fes),phosphorylation enrichment (EPHB2),phosphorylation enrichment (MERTK),phosphorylation enrichment (FGFR3),phosphorylation enrichment (AncSZ),phosphorylation enrichment (c-Abl (mouse)),phosphorylation enrichment (Hck),phosphorylation enrichment (Fer (mouse)),phosphorylation enrichment (FGFR1),phosphorylation enrichment (Fyn)
VKPRRYRPGTV [H3-5_Y41_H39R],0.835,0.514,0.576,0.588,0.56,0.608,0.542,0.51,0.577,0.466,0.622,0.512,0.5,0.463,0.53,0.58
VKYLGYPPPEI [KDR_Y357_A352V],0.896,1.84,0.495,0.489,0.468,0.403,0.719,0.491,0.427,0.626,0.7,0.796,0.451,0.37,0.666,0.486
VLICAYLLHRG [PTEN_Y138_M134L],1.11,1.31,1.09,0.929,0.62,0.516,1.33,0.661,0.412,0.809,1.06,0.833,0.608,0.856,0.44,0.515
VLSIDYYFPPQ [AR_Y552_P549S],1.47,1.55,1.34,6.81,3.13,2.17,1.09,3.2,3.5,10.8,6.35,1.24,0.881,0.605,13.3,1.03
VLTSKHRGGGG [HBA1_Y141_Y141H],1.02,0.751,0.823,0.332,0.318,0.344,0.396,0.225,0.677,0.419,0.486,0.418,0.322,0.222,0.464,0.527
VNYGAYINYFK [GLB1_Y488_D491Y],3.13,1.12,1.23,1.7,1.9,1.08,1.06,2.03,0.629,0.986,0.894,0.941,1.1,0.488,0.905,1.22
VVKTVYSLQPP [KNSTRN_Y87],0.803,1.03,0.441,0.681,0.571,2.46,0.817,0.45,2.61,0.525,0.862,0.777,1.17,0.387,0.458,2.59

# Now from value to sequence, other results behind:
SH2 binding enrichment (Grb2 SH2),SH2 binding enrichment (SHP2-C SH2),SH2 binding enrichment (c-Src SH2),Sequence,phosphorylation enrichment (Jak2),phosphorylation enrichment (EPHB1),phosphorylation enrichment (c-Src),phosphorylation enrichment (Fes),phosphorylation enrichment (EPHB2),phosphorylation enrichment (MERTK),phosphorylation enrichment (FGFR3),phosphorylation enrichment (AncSZ),phosphorylation enrichment (c-Abl (mouse)),phosphorylation enrichment (Hck),phosphorylation enrichment (Fer (mouse)),phosphorylation enrichment (FGFR1),phosphorylation enrichment (Fyn)
0.879,0.769,0.459,VKPENYRRLDI [VHL_Y175],0.298,0.58,0.324,0.48,0.324,0.337,0.463,0.473,0.345,0.331,0.305,0.615,0.351
1.59,1.44,1.18,VMAALYGRLFE [BTD_Y536_T532M_YF],1.03,0.597,6.1,1.18,0.743,1.34,0.752,0.981,0.967,5.53,0.612,0.457,6.68
1.3,1.53,1.52,VMAALYGRLYE [BTD_Y536_T532M],0.864,0.961,5.01,0.963,1.42,3,0.617,0.795,0.8,5.58,1.38,0.468,5.87
0.824,0.822,0.495,VQEDIYDEFVV [ALDH2_Y332_E337V],1.37,0.676,3.57,1.25,0.827,3.17,0.886,1.55,1.75,2.81,5.77,0.599,3.96
0.763,0.825,0.521,VTPSEYLEIVR [TMEM130_Y412_E407V],0.762,1.21,0.44,0.859,0.618,0.387,0.736,0.969,0.681,0.751,0.45,0.557,0.51
1.55,1.43,1.03,VTRKEYFIFLE [CAMKV_Y95],1.01,0.696,0.695,1.06,0.554,0.401,0.838,1.11,0.792,0.43,0.528,0.786,0.481
0.904,0.622,0.408,VVKLAYNENDN [CAMKK2_Y183],0.624,0.449,0.404,0.897,0.55,0.374,0.672,0.856,0.592,0.527,0.484,0.518,0.478
0.815,0.673,0.469,VVKLTYNENDN [CAMKK2_Y183_A182T],0.726,0.491,0.419,0.917,0.545,0.467,0.564,0.939,0.551,0.5,0.577,0.618,0.468
0.651,0.981,0.482,VVKTVYSLQPS [KNSTRN_Y87_P92S],0.715,0.671,2.05,0.848,0.455,1.42,0.561,0.648,0.716,0.688,0.485,0.52,1.73
